Measured values reported in the supplement of paper PMC9170038.

Tested on: MS2 coat protein
Assay: apparent KD of MS2 coat protein; designed switch direction (-1 OFF switch, 1 ON switch): -1; higher = weaker reporter binding
In short: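 Normalised cluster fluorescence was curve-fitted, and each design's median over clusters is its apparent KD. Before this, SNAP-549-labelled MS2 coat protein was titrated from 0.7 or 1.5 nM, doubling to 3 µM, over RNA switches transcribed on Illumina chips by stalled E. coli RNA polymerase. Titrations had no input, 200 uM small-molecule ligand, or an oligonucleotide input, and steps lasted 0.8–1.5 h (lowest) to 10–20 min (highest).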

[1] = input ligand: microRNA oligo, concentration not stated
[2] = Eterna round: R95, input ligand: FMN 200 uM
[3] = Eterna round: R95, input ligand: microRNA oligo, concentration not stated
[4] = Eterna round: R95, input ligand: none

Sequence	apparent KD of MS2 coat protein (input ligand: FMN 200 uM) [nM]	apparent KD of MS2 coat protein [1] [nM]	apparent KD of MS2 coat protein (input ligand: none) [nM]	apparent KD of MS2 coat protein [2] [nM]	apparent KD of MS2 coat protein [3] [nM]	apparent KD of MS2 coat protein [4] [nM]
AAGCAUUGCCAAAGGUAGUGCUUUACAUGAGGAUCACCCAUGUAGGAUAUGGUAGGCAAAGCUUACCAGAAGGACAUGAUAAUU [Mat - Exclusion NG 3 - Mod of JL - D13] (Eterna round: R96, puzzle: Exclusion NG 3)	151	47.4	47.9	–	–	–
UUCUUUAUACGAGGAUAUCAUACAUGAGGAUCACCCAUGUGGCUGGGUCUGUUUUUAUAUAUUAUUGAGAAGGCGUUUUUCUUU [JR_ExcNG2_Sub074] (Eterna round: R96, puzzle: Exclusion NG 2)	197	50.5	86.7	–	–	–
UAUUAGGGAGGAUAUCGCAGUUGCAACAUGAGGAUCACCCAUGUGAACAGCCUCACCAAUCGAGAAGGCCUGAGUG [Eternabot (L2) Solution 59] (Eterna round: R97, puzzle: Exclusion 5)	71	–	75.5	–	–	–
GUACAGGUAGGAUAUCGAUACAAGAACAUGAGGAUCACCCAUGUGGGUCGAUUUUCGAAGCGAGAAGGACCAAAUG [Rixeatenso] (puzzle: Exclusion 5)	–	–	–	406	132	145
GGCGCCUCAGGAUAUCAGUCUGGAUCAGAAUAGAUCCUGACUGAGAAGGGACAUGAGGAUCACCCAUGUUCGCC [Eli 4x 4.29] (Eterna round: R97, puzzle: Exclusion 4)	20.8	–	18.9	–	–	–
UCUUGUUGUCCUUGAUAAUACAUGAGGAUCACCCAUGUUAUUUUGAUUAUGAUGUGUAAGUUUGUUGCUCGUUUUAU [JR_STOV1_Sub069] (Eterna round: R97, puzzle: Sensor, turn-off variant 1)	27.7	–	30.9	–	–	–
GACUGUCUAGGAUAUGCGACGUUUUACAUGAGGAUCACCCAUGUUGUCUGCGUGUGUGUGGCAGAAGGAGACAAAC [Eses] (puzzle: Exclusion 5)	–	–	–	–	13.3	–
GAUUCGGGAGGAUAUACAUGAGGAUCACCCAUGUGUAUAUAAUAUGUUAAGUUAUCAUGUAGAAGGUUUGGGUC [-16.5, -16.2 kcal, 30% A] (Eterna round: R97, puzzle: Exclusion 3)	38	–	49	–	–	–
AGGUGUUUCGUAGGAUAUGAGGAUCACCCAUAGAAGGAUAUCGAAAGAGAAGGUCUGAGGAUUACCCAGAAGGACGGGACGUCA [pwkr exNG2 2xF5 2xFMN.10] (Eterna round: R96, puzzle: Exclusion NG 2)	570	103	145	–	–	–
ACAUGUAAUGCAGGAUAUCUGACACAUGAGGAUCACCCAUGUGACCAGAGGAAUUGCUAUGAGUCGGAGAAGGGUAUGUACAUG [Ex NG2 #54] (Eterna round: R96, puzzle: Exclusion NG 2)	37.7	20.3	27.1	–	–	–
UAUGUCUUUGUGAGGAUAUACUUUGUUUGGUCGUAGUAGAAGGCACAUGAGGAUCACCCAUGUAGAUUUUUGGU [JR_BME4_Sub011] (puzzle: Brourd's mod of Exclusion 4)	–	–	–	–	20.1	–
GUCGGGCGUGUCAGGAUAUGGUAGAGUGGUCGCGGCCAGAAGGGACAUGAGGAUCACCCAUGUUCCGUGGGCAG [BmEX4 C.11] (Eterna round: R97, puzzle: Brourd's mod of Exclusion 4)	19	–	19.9	–	–	–
GUAAAGGGUGUCCUUAAAACAUGAGGAUCACCCAUGUGGACUAAGGAUAUCCAAAAUAAAGAUAAGGAGAAGGUAGUGGAAAGA [Usarqudi] (Eterna round: R96, puzzle: Exclusion NG 3)	19.3	19.9	14	–	–	–
CUAGUCCGAGGAUAUAUUAUGUGAUACAUGAGGAUCACCCAUGUUAUAUGAUGGAUGUUAGUAGAAGGCGGACUAG [Mat - Exclusion 5 - JL mod - D81] (puzzle: Exclusion 5)	–	–	–	86.3	96.6	79.3
ACAUGAGGAUCACCCAUGUCCGUCUGGUCUGUCUCGGCUGUCGAGGAUAUAGCUCGGUAUCCGCGCUAGAAGGCGGGAGUCGGC [Aenatbe mod 96] (Eterna round: R96, puzzle: Exclusion NG 3)	26.4	17.3	31.9	–	–	–
